Laboratory results reported in the supplement of paper PMC10567573.

B1: GFOD1 (parent)
chain: EEAEELAKEMSVPFYTSRIDEVLL
B2: STK38L (parent)
chain: NWKETLVFPPEVPISEKAKDLILR

Variants of: B1
Test: protein stability index of a GFP-peptide fusion (GPS, HEK-293T) (PSI 1-6); higher = more stable
Conditions: c terminus: a fixed tail appended
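Also: lentivirally expressed fusions sorted by FACS into six bins by GFP to DsRed ratio, PSI derived from sequencing read proportions per bin multiplied by bin number.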

Protein stability index: each site, then its substitutions
V22: I 3.23, A 4.53, Q 4.65, E 5.12, H 4.68
E4: M 4, K 3.46, Y 2.64, D 3.97, F 2.98, I 3.51, Q 3.9, H 3.4, N 3.92, S 3.93, P 3.6, R 3.52
L6: A 4.38, P 4.26, R 4.2, S 4.19, F 3.93, K 4.54, H 4.48, M 4.01, W 3.75, V 3.94, T 4.46, C 4.38, I 3.73
T16: Q 4.17, K 3.7, G 3.78, M 3.03, Y 2.27, H 3.93, S 3.27, F 2.33, C 3.81
M10: F 3.62, H 4.53, Y 3.63, A 4.41, S 4.12, C 4.53, L 2.62, I 3.57, V 3.84, P 4.5, T 4.03, G 4.22, D 4.7, K 4.03
Y15: K 4.41, T 4.91, W 3.1, S 5.01, I 3.62, E 4.99, C 3.97, L 3.67, F 3.61, R 4.2, M 4.14, Q 4.42
S17: C 2.52, A 3.09, T 3.29, I 2.38, V 3.12, F 1.79, L 2.09, K 3.87, D 4.98, R 3.9, Y 2.94, W 3, E 4.27, N 4.04, H 3.71, Q 3.27
I19: P 4.48, L 3.69, E 5.1, Q 4.93, N 5, A 4.54, Y 4.64, S 4.75, F 3.01, M 3.2, T 4.11, G 4.48, H 4.85, K 4.41, R 4.57, C 4, D 5.04
R18: W 3.71, K 4.26, D 4.79, E 4.65, C 4.17, I 2.92, L 3.05, H 4.57, V 2.64, Q 4.69, N 4.4, M 3.43
L24: T 4.22, V 4, C 4.04, D 5.2, N 4.6, M 3.73, F 3.55, G 4.11, I 3.75, P 4.98, Y 3.2, E 4.97, Q 4.78
P13: S 3.47, R 4.11, E 3.97, D 3.96, V 2.74, T 4.03, I 2.03, L 2.57, H 2.54, K 3.19, C 3.27, G 4.02

Variants of: B2
Test: as above
Conditions: c terminus: a fixed tail appended

Protein stability index of substitutions, site by site:
N1: I 2.18, S 4.02, H 3.04, P 3, V 2.41, K 2.9, C 3.1, Y 2.44, D 3.57, Q 3.09, W 1.78, A 2.16, R 2.74, M 1.98
K3: A 3.37
W2: F 3.37, L 3.96, R 3.39, S 3.01, V 3.59, D 3.68, N 4.14, Q 4.21, A 4.45, H 3.46, E 4.15, C 3.67, P 4.09, T 4.64, Y 3.25, I 3.32, M 3.54
